The record followed here is the DeepSol protein solubility set.

The data set is described as follows: soluble on expression in E. coli; label from the status in PepcDB or PDB records.
As for “MSLSDSRSDDRHPSVTPEQLATLSHEFRTPLNGVLGMARLLENTKLTAEQRSYVTALRESGDHLLSLVNDVLHFARLGAAAIELSLAPVDIEGLLRQVAELMSPRAHEKGIEIAWAVSSPLPTILADEGRLRQILLNFAGNAVKFTEAGGVLLTASAIDGGRVRFSVADTGPGVAPDARARIFEAFVQTDVTHATQLGGAGLGLAIVSRLSAAMGGAVGVGGELGQGAEFWFEAPFATAAAPLRAAPLEGRNVAIASPNAIVRAATARQIEAAGGRAYAAVDIASALAGAPADAVLLIDAALSGPRGALKPPAGRRSVVLLTPEQRDRIDRLKAAGFSGYLIKPLRAASLVAQVLQAVTADGVAEDEPAHDDRIAGAVASGARVLLAEDNPINALLARTLLEREGCIVDRVADGEQAIAAASAGVYDLILMDLRMPGLTGIEAARALRAKGVATPIAALTADAFDEDRRTCLAAGMDDFLVKPLTQEALRDALKRWTTGGVSGEGHHHHHH”, the “soluble on expression in E. coli” value is reported as “soluble”. As to “MSLSDTIPVFDGHNDFLLRLLRNPANRETIWLKGDGTGHLDLPRMKEGGFAGGFFAIYVPSPQAHDAAHFEAMMDAPPFELPLPPMIRAEQAQPVALAMAGHLLWMERAARGRFKVCRTAAEVRSCHADGIVSGIMHMEGAEAIGADLDALHLFHSLGLRSLGPVWSRPTVFGHGVPFRFPGSPDTGEGLTEAGRRLVAECNRLKIMLDLSHLNEKGFDDVARLSDAPLVATHSNAHAVTPSTRNLTDRQLAMIRESRGMVGLNFATSFLREDGRRSAEMGWEPVLRHLDHLIDRLGEDHVGMGSDFDGATIPQGIADVTGLPALQAAMRAHGYDEPLMRKLCHENWYGLLERTWGEGHHHHHH”, the “soluble on expression in E. coli” value is “soluble”. Take “MSLSEAVERQTLTIANSKAWKPYSYLDEQGQPSGILIDFWLAFGEANHVDIEFQLMDWNDSLEAVKLGKSDVQAGLIRSASRLAYLDFAEPLLTIDTQLYVHRTLLGDKLDTLLSGAINVSLGVVKGGFEQEFMQREYPQLKLIEYANNELMMSAAKRRELDGFVADTQVANFYIVVSNGAKDFTPVKFLYSEELRPAVAKGNRDLLEQVEQGFAQLSSNEKNRILSRWVHIETIYPRYLMEGHHHHHH”: the “soluble on expression in E. coli” value is listed as “soluble”.

“MSLSEPILFVDDEQHVLNALQRVFSESGLETVFTRSPIEALELCRSKKFAVIVSDNMMPEMKGIELLTRIKEESPETVKCLLTAHADLDTALQAINSGEVFRFIVKPWRNEELYQAVSEGVARFRIWDALRQHDEGVLHSLAETIELKDHYTRGHCNRVADHALRICELLKLPSTTSREIRYGSWLHDCGKIGVPETILNSTCMLSEQEMIVVRKHPEWGANVAQQANLSPTLINIIRHHHERFDGTGYPFGLKGVSIPLEARIVAVADVFDALTTDRPYKPAMSFAKAHKLMGDMRGNHLEGRLVDMFFQTLDTEKTGSEGHHHHHH”: the “soluble on expression in E. coli” value was “not soluble”.

“MSLSGKKVIYFIPIVDTGAYWSPMKKAAEDEAKALGYDLVVKTSPPNETQKNEKHIGFLDEAIKNKAAGIAIAPMDPDMFDKKVKEANDKGIPVVTFDADVKTKENRTSYIGTDNKLAGEQLGENGAKALKEKGITKGKIAMAAVNLTQTTMTYRQDGIKSGFEKVMGADAKNFEWLEPIQDNDQSAESKRQLEGQITSNSDMVAVFSLGSEGPDTGVMEAIKSQGKSGSIYHFGFDYTPTWENGVSSNLISGIVDQDSYAIGKTIIDTLDKKIKGEKVDDVYPVPVKWVTPDKIVEYGKEKQKQFTTELKGIITITTDPNSSSVDKLAAALEHHHHHH”: the “soluble on expression in E. coli” value is recorded as “soluble”.

As for “MSLSIFTDLNTSRKWQIDQWLSAVNSHIEKIQQYGHSVVNPTPLLADGFEIKTQSPVVWQFPDGHDAPISNFASQQNWLRLLISMSVITETEKYRHLAFCQSEYFLNRFVDENSGLFYWGGHRFINLDTLASEGPESKSMVHELKHHLPYYEFLHQVNPEKTRHFIQGFWNAHVEDWSCLDLGRHGDYARQRDPDVFLHSRHDVVTPANWPELPLTKGLTFVNAGTDLIYAAFVYARHTGDAHAAAWGKHLYRQYVLARNPETGMPVYQFSSPLQRQPVPADDNQTQSWFGDRAQRQFGPEFGAIAREANVLFRDMRPLLIDNPLAMLDILRHQPDAEILTWVIAGLKNYYQYAYDVNSNSLRPMWNNGQDMTDYCFKRDGYYGKAGTVLKPFPLEGDYLLPLVRAWLLSDDDDLHTLIVTMLSRLEKQGIHQSASPFLLLAITELAHAKQSAQWAEYAWQMAEILFKRYFHHGLFVRSEHHRYVRLDDPFPAILLTLIAACRNKWSEVPAVLTQGGYIHGDYRINGESRVIYDTGIYLPRKINEGHHHHHH”, the “soluble on expression in E. coli” value was “not soluble”. As to “MSLSKIFVTGATGLIGIKLVQRLKEEGHEVAGFTTSENGQQKLAAINVKAYIGDILKADTIDQALADFKPEIIINQITDLKNVDMAANTKVRIEGSKNLIDAAKKHDVKKVIAQSIAFMYEPGEGLANEETSLDFNSTGDRKVTVDGVVGLEEETARMDEYVVLRFGWLYGPGTWYGKDGMIYNQFMDGQVTLSDGVTSFVHLDDAVETSIQAIHFENGIYNVADDAPVKGSEFAEWYKEQLGVEPNIDIQPAQPFERGVSNEKFKAQGGTLIYKTWKDGMNPIKEGHHHHHH”, the “soluble on expression in E. coli” value is “soluble”. As for “MSLSKVRISSKIEDCEEIINQYGGNYLSHLIYSGDKQFFTNENKTAFLMYRYKASSLVVLGDPLGDENAFDELLEAFYNYAEYLGYDVIFYQVTDQHMPLYHNFGNQFFKLGEEAIIDLTQFSTSGKKRRGFRATLNKFDELNISFEIIEPPFSTEFINELQHVSDLWLDNRQEMHFSVGEFNEEYLSKAPIGVMRNEENEVIAFCSLMPTYFNDAISVDLIRWLPELDLPLMDGLYLHMLLWSKEQGYTKFNMGMATLSNVGQLHYSYLRERLAGRVFEHFNGLYRFQGLRRYKSKYNPNWEPRFLVYRKDNSLWESLSKVMRVIRHKEGHHHHHH”, the entry is “soluble”. As for “MSLSLEEALLFREATVTDLKSIMNVENAAFTVPWTEAAFRNEFIINQYAYYLLAIYKEQVVGYAGVWLVLDEGHITNIAIHPDYQGNHYGEALLREMIRVAKERGVVRMTLEVRVSNDVAQGLYKKLGFQDGAIRKNYYPDTKEDALVMWVDLEGHHHHHH”, the entry is “soluble”; as for “MSLSLESLEWMAFDSFLLWRSEESIDARILLVEINQNDNYSLTSTISNSSFIGVIEKLQVYQPKVIGLEVDQHLLINSQEDKLAKIFQKYKNLIANEKILPLQVHSYLDLPNEQITFADQILDNDGKSRRSLLAINTSNGYKLSLAMELARIYLAEKNISLENSRLGKTKLPRFLPNSGGYIRADASGFQVLINFRSGNQRFRTLSGEDIKNGKFNPEWIRDRIVIIGITNTHNQGFIPTSAITSVKSASTQVNKLEIQAHAISQIISAVLDGRPLINTWNDGEGHHHHHH”, “not soluble”.

In the case of “MSLSLLVIGSLAFDDIETPFGRSDNTLGGSSTYIALSASYFTDEPIRMVGVVGSDFGKEHFDLLHAKNIDTRGIQVIEDGKTFRWAGRYHYDMNTRDTLDTQLNVFAEFDPHVPQYYRDSKFVCLGNIDPELQLKVLDQIDDPKLVVCDTMNFWIEGKPEELKKVLARVDVFIVNDSEARLLSGDPNLVKTARIIREMGPKTLIIKKGEHGALLFTDNGIFAAPAFPLESIYDPTGAGDTFAGGFIGHLARCGNTSEAEMRKAVLYGSAMASFCVEQFGPYRYNDLDLLEVDDRYQSFLELSRIEEGHHHHHH”, the “soluble on expression in E. coli” value was “soluble”. As for “MSLSMLPSFGFTQEQVACVCEVLQQGGNLERLGRFLWSLPACDHLHKNESVLKAKAVVAFHRGNFRELYKILESHQFSPHNHPKMQQLWLKAHYVEAEKLRGRPLGAVGKYRVRRKFPLPRTIWDGEETSYCFKEKSRGVLREWYAHNPYPSPREKRELAEATGMTTTQVSNWFKNRRQRDRAAEAKERENTENEGHHHHHH”, the entry is “not soluble”; as for “MSLSNLINGKIPNQAIQTLKIVKDLFGSSIVGVYLFGSAVNGGLRINSDVDVLVVVNHSLPQLTRKKLTERLMTISGKIGNTDSVRPLEVTVINRSEVVPWQYPPKREFIYGEWLRGEFENGQIQEPSYDPDLAIVLAQARKNSISLFGPDSSSILVSVPLTDIRRAIKDSLPELIEGIKGDERNVILTLARMWQTVTTGEITSKDVAAEWAIPLLPKEHVTLLDIARKGYRGECDDKWEGLYSKVKALVKYMKNSIETSLNEGHHHHHH”, “soluble”; as for “MSLSNLTSQLHNFFSAQLAGVSDEVRVSIRTAPNLLPPCEQPLLSMSNNSRLWGNVNVLARCGNDKRYLQVNVQATGNYVVAAMPIARGGKLEAGNVKLKRGRLDTLPPRTVLDINQLVDAISLRDLSPDQPIQLTQFRQAWRVKAGQRVNVIASGDGFSANAEGQALNNAAVAQNARVRMVSGQVVSGVVDADGNILINLEGHHHHHH”, “soluble”.

Consider “MSLSNMTQQTRTQQARETMKRVYRYQAANQTRSVIRRSGKTRFIKDTDWERGVFWSCVAAAWLATDDAEYLEGVMNYTLHTGFRPGPNLRFADDLICCQAYLDVWPQIAVPEALEPTIKAVSAMVDEPKPGREDWWWCDSLFMAPATFAALSQRTGDARYLAYMDTAFWDAVDYLRDPDSGLFYRDHRYIPDGNGTELREENGEKVFWSRGIGWVLAAIPRLLARMPEDYTGRQRYLDLFTDLADKVIRYQQADGLWRTSLLDPQRFPAPESSATALFCYGLSWGINQGILAPETYLPVVEKAWDALQGCIHDNGMMGWVQLPAFNPRDVKFEHNMDYGAGAYLLAASEMLRLAEGHHHHHH”, for which the “soluble on expression in E. coli” value was “soluble”. As for “MSLSNTSASFGFKDVDASLKAGLVRGVFDRVAKNYDIMNDLMSGGVHRLWKDAVAARLNPQPGEVIIDCAGGTGDMARRFAKMARKAQERRGGPDATINIVDYNAEMIMAGIERGGEPEITWTVGDAQRLPLPDAYADAYVISFGIRNVTDINAALREARRVLKPGGRFLCLEFSRPVTEPLAKAYDAYSFKVIPQVGEWVAKDRDAYQYLVESIRRFPDQRTFAGMIEAAGFKRVTFTNFTGGVAALHQGWAIEGHHHHHH”, the entry is “not soluble”. As for “MSLSPAGGPDLAALAASSTSIDLPYLLAGVENENELDLYVVPSGKPVAVRAATFDSERQVYSLALDNPQRILTWTPASAPGGDEGNSTSLPLVPPGTVVYTGSSLNPVVTEQEGYPALDLLDQERLIITFPMDSGLPPILVVFKSPRYEAGTSTGHGLEHHHHHH”, the entry is “soluble”. In the case of “MSLSPARAQEEISRLQQQIKQWDDDYWKEGKSEVEDGVYDQLSARLTQWQRCFGSEPRDVMMPPLNGAVMHPVAHTGVRKMVDKNALSLWMRERSDLWVQPKVDGVAVTLVYRDGKLNKAISRGNGLKGEDWTQKVSLISAVPQTVSGPLANSTLQGEIFLQREGHIQQQMGGINARAKVAGLMMRQDDSDTLNSLGVFVWAWPDGPQLMSDRLKELATAGFTLTQTYTRAVKNADEVARVRNEWWKAELPFVTDGVVVRAAKEPESRHWLPGQAEWLVAWKYQPVAQVAEVKAIQFAVGKSGKISVVASLAPVMLDDKKVQRVNIGSVRRWQEWDIAPGDQILVSLAGQGIPRIDDVVWRGAERTKPTPPENRFNSLTCYFASDVCQEQFISRLVWLGAKQVLGLDGIGEAGWRALHQTHRFEHIFSWLLLTPEQLQNTPGIAKSKSAQLWHQFNLARKQPFTRWVMAMGIPLTRAALNASDERSWSQLLFSTEQFWQQLPGTGSGRARQVIEWKENAQIKKLGSWLAAQQITGFEEGHHHHHH”, the “soluble on expression in E. coli” value is listed as “soluble”. For “MSLSQERFRVKYQIFEESKRAKEIAEAICVEQTIEFPIELTGNSIRENVVGKIEEIQNNHNSTVVTISYPVETVGNEPAQFFNVIMGNCSLFPNLKIIGLQLSPSIENIFPGPRYGISGLRKLLSIYNRPLLATAIKPMGLSTDQLAQMAYNLALGGVDIIKDDHGLADQPFSKFKDRVLKVTEAIHKANRETGFHTIYAPNITSNEQTMLKQAEFVKEAGSGALLVSPALSGFSSFITLRENTDLPILSHPAFLGGYLSIMDFDVLFGTIQRMIGADVVIFPNYGGRFTFSKEDCRKINHGLKKPFGSFKEIFPSPAGGMNIDSCGDIVSFYNKDVVLLIGGALHKAGADLTENVKAFKAQVEKIHVREGHHHHHH” the value was “soluble”.
